For experiment [1], the target named is human CD73 on tumor cell line MDA-MB-231 that highly expresses human CD73 (human) (UniProt P21589). The experiment can be described thus: cell-based or functional assay.
Experiment [2] has as its target T1, human CD73 (huCD73) protein, antigen of the Biacore assay (human, UniProt P21589 27-547, limits assumed).
T1 construct: also called human CD73 antigen
T1 sequence (looked up): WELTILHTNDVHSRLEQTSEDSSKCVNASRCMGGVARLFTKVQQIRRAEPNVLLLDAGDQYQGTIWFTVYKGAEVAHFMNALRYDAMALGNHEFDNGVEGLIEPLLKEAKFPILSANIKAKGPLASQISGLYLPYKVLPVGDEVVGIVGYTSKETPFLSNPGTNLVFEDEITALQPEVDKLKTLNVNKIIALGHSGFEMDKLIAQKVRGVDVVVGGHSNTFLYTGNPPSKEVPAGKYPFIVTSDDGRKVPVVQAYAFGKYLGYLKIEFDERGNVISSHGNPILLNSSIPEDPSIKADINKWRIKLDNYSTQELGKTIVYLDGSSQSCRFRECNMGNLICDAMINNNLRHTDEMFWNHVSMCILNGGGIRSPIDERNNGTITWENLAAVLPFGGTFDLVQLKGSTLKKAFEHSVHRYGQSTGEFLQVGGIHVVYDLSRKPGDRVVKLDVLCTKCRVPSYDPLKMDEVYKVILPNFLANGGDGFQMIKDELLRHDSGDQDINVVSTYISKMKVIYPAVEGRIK
The experiment can be described thus: SPR Biacore T200; antibody captured on Protein A chip, CD73 in flow; 1:1 Langmuir. The source says: In this experiment, Biacore instrument was used to determine the affinity of the humanized anti-CD73 antibodies to be tested with human CD73 (huCD73) and monkey CD73 (cynoCD73).
A certain amount of test antibody was affinity-captured with Protein A biosensing chip (Cat. #29127556, GE), and then a certain concentration of human or monkey CD73 antigen was allowed to flow through the surface of the chip. The reaction signals were detected in real time with Biacore instrument (Biacore T200, GE) to generate a binding and dissociation curve. At the end of each cycle, after the dissociation was completed, the biosensor chip was washed and regenerated with Glycine-HCl, pH1.5 (Cat. #BR-1003-54, GE). The running buffer for the assay was 1×HBS-EP buffer solution (Cat. #BR-1001-88, GE).
The data obtained from the experiment was fitted against (1:1) Langmuir model using GE Biacore T200 Evaluation version 3.0 software, and the affinity values were obtained, as shown in Table 12 and Table 13 for details.
On the technique in general: SPR reads the build-up and loss of mass on a sensor chip optically.

Positions count from the first letter of the chain named.

The molecule “MEDI9447 (antibody MEDI9447 disclosed in patent application WO2016075099)” displayed an IC50 (nM) in the assay showing the inhibition of enzyme activity in MDA-MB-231 cell in experiment [1] of 0.565 nM.

B1: Hab108.62 (antibody, V domains shown)
VH: EVTLKESGPVLVKPTETLTLTCTVSGFSLSSYGIQWIRQPPGKLLEWLAVIWSGGSADYNAAFISRLTISKDTSKSQVVLTMTNMDPVDTATYYCAGQYGSVWGQGTLVTVSS
VL: DIQMTQSPSSLSASVGDRVTITCRASQDIGDRLNWLQQKPGGAIKRLIYATSSLDSGVPKRFSGSGSGTEYTLTISSLQPEDFATYYCLQYAGSWTFGGGTKVEIK
notes: VL6 + VH2; full-length antibody
Usually Kd stands for a measure of binding affinity in units of concentration. High values mean a looser complex, low ones a tighter complex. In general, koff refers to the first-order rate constant of dissociation. One may read the kon as the second-order rate constant of association. A lower kon goes with slower complex formation. B1: in experiment [2], the Kd is 0.382 nM, the koff was 8.68e-05 s⁻¹ and the on-rate (kon) came to 227000 M⁻¹ s⁻¹.

B2: Hab108.63 (antibody, V domains shown)
VH: B1 VH with I37V, A49G
VL: B1 VL
notes: VL6 + VH3; full-length antibody
In experiment [2], B2 yielded a Kd of 0.513 nM, a koff of 0.000117 s⁻¹ and a kon of 228000 M⁻¹ s⁻¹.

B3: Hab108.65 (antibody, V domains shown)
VH: B1 VH with S30K, I37V, A49G
VL: B1 VL
notes: VL6 + VH5; full-length antibody
In experiment [2], B3 had a Kd of 0.246 nM, a koff of 6.93e-05 s⁻¹ and an on-rate constant (kon) of 281000 M⁻¹ s⁻¹.

These data come from patent US20220220218A1 (JIANGSU HENGRUI MEDICINE, published 2022).
